Reference: paper PMC12493170, “Functional and structural characterization of AtAbf43C: an exo-1,5-α-L-arabinofuranosidase from Acetivibrio thermocellus DSM1313” (Biochemical Journal, 2025)

What was measured:
[1] = biological target: T1, AtAbf43C (Acetivibrio thermocellus, UniProt A3DHB3, E363A); experiment: pNP release at […] nm, activity relative to wild type; format: biochemical; conditions: 5 mM substrate, pH 5.5 sodium acetate, 65 °C, 10 min; catalytic residue
T1 construct: gene Cthe_2138; residues 21-511 of 580, no signal peptide or dockerin I domain, C-terminal LEHHHHHH tag, pET28b(+), E. coli BL21(DE3) Rosetta2

[2] = biological target: T2, AtAbf43C (Acetivibrio thermocellus, UniProt A3DHB3, D302A); experiment: as above; format: biochemical; conditions: 5 mM substrate, pH 5.5 sodium acetate, 65 °C, 10 min; catalytic residue
T2 construct: gene Cthe_2138; residues 21-511 of 580, no signal peptide or dockerin I domain, C-terminal LEHHHHHH tag, pET28b(+), E. coli BL21(DE3) Rosetta2

[3] = biological target: T3, AtAbf43C (Acetivibrio thermocellus, UniProt A3DHB3, D187A); experiment: as above; format: biochemical; conditions: 5 mM substrate, pH 5.5 sodium acetate, 65 °C, 10 min; catalytic residue
T3 construct: gene Cthe_2138; residues 21-511 of 580, no signal peptide or dockerin I domain, C-terminal LEHHHHHH tag, pET28b(+), E. coli BL21(DE3) Rosetta2

[4] = substrate: O=[N+]([O-])c1ccc(O[C@@H]2O[C@@H](CO)[C@H](O)[C@H]2O)cc1; experiment: purified protein; format: biochemical, Acetivibrio thermocellus; conditions: pH 5.5, 100 mM sodium acetate, 65 °C, 2 min, 0.9-36 mM substrate, full saturation not achieved

T3 sequence (A3DHB3 entry or part of it D187A): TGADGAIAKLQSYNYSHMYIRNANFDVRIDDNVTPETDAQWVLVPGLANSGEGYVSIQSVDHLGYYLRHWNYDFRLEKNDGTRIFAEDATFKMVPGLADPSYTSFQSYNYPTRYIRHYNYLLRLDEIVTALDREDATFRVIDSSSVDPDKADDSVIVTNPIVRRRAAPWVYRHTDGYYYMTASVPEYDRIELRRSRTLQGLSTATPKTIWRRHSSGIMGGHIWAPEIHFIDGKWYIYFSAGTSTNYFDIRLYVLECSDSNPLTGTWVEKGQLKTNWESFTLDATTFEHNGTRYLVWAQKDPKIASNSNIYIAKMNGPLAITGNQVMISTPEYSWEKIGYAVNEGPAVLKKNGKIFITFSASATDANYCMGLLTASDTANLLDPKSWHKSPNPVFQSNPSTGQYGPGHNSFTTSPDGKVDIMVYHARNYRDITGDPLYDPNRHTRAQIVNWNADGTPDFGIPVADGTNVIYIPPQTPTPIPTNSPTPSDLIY
T2 sequence (A3DHB3 entry or part of it D302A): as the sequence (A3DHB3 entry or part of it D187A) above, with A167D, D282A counted along it
T1 sequence (A3DHB3 entry or part of it E363A): as the sequence (A3DHB3 entry or part of it D187A) above, with A167D, E343A counted along it

O=[N+]([O-])c1ccc(O[C@@H]2O[C@@H](CO)[C@H](O)[C@H]2O)cc1 [pNPAra, para-nitrophenol-α-L-arabinofuranoside]
% activity relative to wildtype [1]: activity on pNPAra was completely eliminated in any of the versions
% activity relative to wildtype [2]: activity on pNPAra was completely eliminated in any of the versions
% activity relative to wildtype [3]: activity on pNPAra was completely eliminated in any of the versions

B1: AtAbf43C_GH43 (Acetivibrio thermocellus ATCC 27405) (protein)
chain: DPDKADDSVIVTNPIVRRRADPWVYRHTDGYYYMTASVPEYDRIELRRSRTLQGLSTATPKTIWRRHSSGIMGGHIWAPEIHFIDGKWYIYFSAGTSTNYFDIRLYVLECSDSNPLTGTWVEKGQLKTNWESFTLDATTFEHNGTRYLVWAQKDPKIASNSNIYIAKMNGPLAITGNQVMISTPEYSWEKIGYAVNEGPAVLKKNGKIFITFSASATDANYCMGLLTASDTANLLDPKSWHKSPNPVFQSNPSTGQYGPGHNSFTTSPDGKVDIMVYHARNYRDITGDPLYDPNRHTRAQIVNWNADGTPDFGIPVADGTNVIYIPPQ
notes: isolated GH43 catalytic domain, residues 167-494, no CBM42, cloned in pET28b(+) and IMAC-purified, E. coli BL21(DE3) Rosetta2
Km [4]: 59.6 ± 12.1 mM
kcat [4]: 238 ± 33.4 s⁻¹
kcat/Km [4]: 4000 ± 1000 M⁻¹ s⁻¹

B2: AtAbf43C (Acetivibrio thermocellus ATCC 27405) (protein)
chain: TGADGAIAKLQSYNYSHMYIRNANFDVRIDDNVTPETDAQWVLVPGLANSGEGYVSIQSVDHLGYYLRHWNYDFRLEKNDGTRIFAEDATFKMVPGLADPSYTSFQSYNYPTRYIRHYNYLLRLDEIVTALDREDATFRVIDSSSVDPDKADDSVIVTNPIVRRRADPWVYRHTDGYYYMTASVPEYDRIELRRSRTLQGLSTATPKTIWRRHSSGIMGGHIWAPEIHFIDGKWYIYFSAGTSTNYFDIRLYVLECSDSNPLTGTWVEKGQLKTNWESFTLDATTFEHNGTRYLVWAQKDPKIASNSNIYIAKMNGPLAITGNQVMISTPEYSWEKIGYAVNEGPAVLKKNGKIFITFSASATDANYCMGLLTASDTANLLDPKSWHKSPNPVFQSNPSTGQYGPGHNSFTTSPDGKVDIMVYHARNYRDITGDPLYDPNRHTRAQIVNWNADGTPDFGIPVADGTNVIYIPPQTPTPIPTNSPTPSDLIY
notes: residues 21-511 of 580, no signal peptide or dockerin I domain, C-terminal LEHHHHHH tag, pET28b(+), E. coli BL21(DE3) Rosetta2
Km [4]: 22.7 ± 4.1 mM
kcat [4]: 269 ± 25.5 s⁻¹
kcat/Km [4]: 11900 ± 2400 M⁻¹ s⁻¹
